Ends that are not written are not given here.

Chain of Ku70/Ku80ΔC heterodimer (P12956 whole entry, stated change not applied, chain 1 of 2): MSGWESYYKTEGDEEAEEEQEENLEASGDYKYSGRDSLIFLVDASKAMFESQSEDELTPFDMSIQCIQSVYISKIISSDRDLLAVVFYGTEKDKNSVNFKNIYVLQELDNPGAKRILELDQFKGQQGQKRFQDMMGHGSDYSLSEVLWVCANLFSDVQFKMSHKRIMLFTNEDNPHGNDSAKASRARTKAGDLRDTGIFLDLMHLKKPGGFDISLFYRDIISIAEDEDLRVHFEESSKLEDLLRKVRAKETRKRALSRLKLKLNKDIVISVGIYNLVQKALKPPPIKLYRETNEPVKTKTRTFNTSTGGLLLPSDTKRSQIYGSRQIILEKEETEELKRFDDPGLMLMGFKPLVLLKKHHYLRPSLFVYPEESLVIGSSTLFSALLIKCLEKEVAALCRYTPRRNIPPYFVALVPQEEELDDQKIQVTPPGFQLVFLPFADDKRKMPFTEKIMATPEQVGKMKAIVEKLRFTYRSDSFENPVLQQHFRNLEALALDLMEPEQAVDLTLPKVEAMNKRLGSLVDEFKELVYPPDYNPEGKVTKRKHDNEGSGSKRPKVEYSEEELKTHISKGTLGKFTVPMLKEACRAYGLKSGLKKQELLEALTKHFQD
Chain of Ku70/Ku80ΔC heterodimer (P13010 1-590, stated change not applied, chain 2 of 2): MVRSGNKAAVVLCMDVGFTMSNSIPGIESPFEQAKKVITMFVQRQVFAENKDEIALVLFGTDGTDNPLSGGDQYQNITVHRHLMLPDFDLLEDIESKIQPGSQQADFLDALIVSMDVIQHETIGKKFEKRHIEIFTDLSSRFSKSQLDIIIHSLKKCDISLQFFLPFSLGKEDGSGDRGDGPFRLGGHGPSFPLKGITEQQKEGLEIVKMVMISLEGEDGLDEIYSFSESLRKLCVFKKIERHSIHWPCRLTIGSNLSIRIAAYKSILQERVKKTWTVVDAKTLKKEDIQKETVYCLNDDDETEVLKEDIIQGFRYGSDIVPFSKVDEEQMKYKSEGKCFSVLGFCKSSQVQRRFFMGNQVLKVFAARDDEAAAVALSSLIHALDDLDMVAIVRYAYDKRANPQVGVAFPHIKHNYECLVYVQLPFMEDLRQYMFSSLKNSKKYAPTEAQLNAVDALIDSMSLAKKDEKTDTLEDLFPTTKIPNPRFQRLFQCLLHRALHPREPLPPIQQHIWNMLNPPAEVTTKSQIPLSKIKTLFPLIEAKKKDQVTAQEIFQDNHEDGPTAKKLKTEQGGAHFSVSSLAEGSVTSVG

The assay addresses Ku70/Ku80ΔC heterodimer (human, UniProt P12956 1-609; P13010 1-590). The assay can be described thus: FP.
Usually Kd stands for the equilibrium constant for the complex coming apart. With Fluorescein-GGYGSSAERKRRLPVWFAKGSDTSKKLMDKTKRGGLFS [fluorescein-labelled WRN-cAX peptide (C-terminal KBM plus XLF-like motif of WRN)], binding was put at a Kd of 720 nM. With Fluorescein-GGYGAQQRKCPEWMNVQN [fluorescein-labelled WRN-nA peptide (N-terminal KBM of WRN)] the figure was 1170 nM.

Consider Fluorescein-GGYGSSAERKRRLPVWFAKG [fluorescein-labelled WRN-cA peptide (C-terminal KBM of WRN)], for which the affinity, expressed as Kd, was 790 nM.

The values are drawn from publication PMC4831024 (2016).
